Biological target: biotinylated human FcRn (hFcRn) (human) (UniProt P55899)
Test: human FcRn affinity column, pH gradient 5.5 to 8.8; retention time relative to the assay control mAb-A (N = 2)

hFcRN Relative Retention Time	Substance
4.15	positive control (polyreactivity assays) (antibody)
0.8	negative control (polyreactivity assays) (antibody)

— patent US20250163168A1, “NOVEL ANTIBODIES AND ANTIBODY CONJUGATES FOR THE TREATMENT OF METABOLIC DISORDERS” (PFIZER INC., priority 2023, published 2025)
